Source: the DeepSol protein solubility set

Assay: soluble on expression in E. coli; label from the status in PepcDB or PDB records
With “MAHHHHHHMRDPQKNCDDVVALRETLKERAGEMAKKMKENERELFLNPMPLGISCDGLPLDTDPEFHALEVARLRERQEESCDEAKIHKLNDALNERAEDLARAKLAADRQYLNPEHLRVAVDELPLNEDRNFILKEALRQEKLQNSRESAAAIAALENELNNMAKAMAAEMLAKQRPSYLAPEHHGRRIEDLPLNDSDDFLKKERRRRDLLKQPSWDIDVVAEIDKELSEMADAMARAMNAAERPQYMKASYYDKTLSELSLDTDSIIARLEAQRARLKRNPVRNAEAIHATEAAIISRAEALAKASINVGRGGVFSASQAECRSISLTSMEANSFNLLRRRGWSS” the “soluble on expression in E. coli” value was “soluble”. For “MKKIRLAVIGTGMAWERLHYPAIKELEDKYEIVALCNRTRKDAEEFAKKINLSMDRVYDDYNEMLKRQDIDAVDILVPIESNYTVSEAVAKAGKDFICEKPLAANREEAKKYLELSKKYNVRIMIAENYRYSDEYNKIRDIVNSGKIGDVVYFIKNNISCFPCEMTKDTFAATEWRQHPKFYGGAFLDAAVHDIAAMRHIFGAVECVQAFGKPQAEDFNPYVSVNAHILFKNGVIGYYTYYPSGIETQKPAVGFRIFGTKGEIYLEDKTCGIINVSYHDGTSELVNFIPERGFYNELLNYYNAINGTEQISVTPEMEYGDVKMVFDILDSVSFREIIYVDEEEPKRRLEIADDEAKIHPFLQ”, the “soluble on expression in E. coli” value was “not soluble”. With “MIVLGIESSCDETGVGIIDLADDGTMTIVGDAVASSMEQHARFGGVVPEIASRAHLESMIPVMKEALAQAGVERPDAVAATVGPGLAGALLVGASAAKAYAAAWGVPFYGVNHLGGHVAVANLEGEELPHSIALLVSGGHTQILEVQAVGKPMRELGSTLDDAAGEAYDKVARLLGLGYPGGPVVDKLAARGNRKAIRFPRGLSRADDLRGEHRYDFSFSGVKTSVARYVESAEREGRVISVEDVCASFQEAVVDVLTSKAIMACKDTGASVLLLGGGVAANSRLRELAAARCQSASIELRVPSFKLCTDNGVMIAAVASQLIHEGAQPSGLSVGTDTSLEVEIPLVHSL” the “soluble on expression in E. coli” value was “not soluble”. With “MGSDKIHHHHHHMATETRVASLPSIDAAALAAIEGCALVDLLLPDTNGVLRGKRVTREALDKVYRDGVCLPMSLIATDITGNTVEETGLGYAIGDADRICRPIAGSLRPVPWAPQPMAQLLLAMHTPNGALFEVAPRAVLQRVVQGFAALGLTPVIAVELEFYLFDAMADAQGRPQTPRDAHTGERNTSTQVYALQDLDDHRSFTDAVTAACRQQGIPADTAVAEYAPGQFEINLQHRADAVAACDEALLLKRTIKAIAQQQHLLASFMAKPFAGQAGSGLHVHVSLLDAAGHNVLHGTADAPAAALRHAIAGLQRHADASLLLFAPHANSYRRFVPNAFVPLDASWGFNNRTVALRIPHSDAHNTRIEHRIAGADANPYLVAAAVLAAMLDGLQHPGDPTAPVQGNAYAQATFTPRTWQGAVDAFLRSDFIATQLGTQFQHVFGQQKQRELLDYQALVPDLDYARYLRTV” the “soluble on expression in E. coli” value was “not soluble”. With “MHPMNILLKLPLKIPLMIIEKAREILEKHPLCNHCLGRMFAKLGKGTNEERGKAIRLILSMELNREVKEPENCELCQGIFRRMNELLDLVRNAVEDYEFQTFQIGSRFPKDILEKEKKIWEEFGITTGEPINREFNRELGKLFAKVTGKIPNRERPDIVIIVEPFSSKVELQVNPIYVAGRYRKLVRGIPQTPAPGFEESIATIICRVFKKNFRGKCIFKGAGREDVDVRTLGRGRPFVVEIKKPRKRKVDLKLIEEEINSSGKVEVLELKFITPEESEKILTARHKKIYEALVYVKDGVSAEEVEKVVKSLKGSEIKQRTPRRVLNSRADIVRVRRVYNVSGEYIDEHHFKLKLVTDGGLYIKELISGDKGRTKPSVSEILGKEAWCEILDVLDVLDGDENVEGDS” the “soluble on expression in E. coli” value was “soluble”. With “AQFQYPFKEVYYLETSPRAHRVILYTKTDRLEFTASLEEVFKQEPRLLQCHRSFLINPANVVHLDKKEKLLFFPNGGSCLIARYKVREVSEAINKLH” the “soluble on expression in E. coli” value was “not soluble”. For “MAALRNGLEGSSEETSFHDESLQDDREEIENNSYHMHPAGIILTKVGYYTIPSMDDLAKITNEKGECIVSDFTIGRKGYGSIYFEGDVNLTNLNLDDIVHIRRKEVVVYLDDNQKPPVGEGLNRKAEVTLDGVWPTDKTSRCLIKSPDRLADINYEGRLEAVSRKQGAQFKEYRPETGSWVFKVSHF”, the “soluble on expression in E. coli” value was “soluble”. For “MNTFQMRDKLKERLSHLDVDFKFNREEETLRIYRTDNNKGITIKLNAIVAKYEDKKEKIVDEIVYYVDEAIAQMADKTLESISSSQIMPVIRATSFDKKTKQGVPFIYDEHTAETAVYYAVDLGKSYRLIDESMLEDLKLTEQQIREMSLFNVRKLSNSYTTDEVKGNIFYFINSNDGYDASRILNTAFLNEIEAQCQGEMLVAVPHQDVLIIADIRNKTGYDVMAHLTMEFFTKGLVPITSLSFGYKQGHLEPIFILGKNNKQK”, the “soluble on expression in E. coli” value was “not soluble”. For “MVSDEDELNLLVIVVDANPIWWGKQALKESQFTLSKCIDAVMVLGNSHLFMNRSNKLAVIASHIQESRFLYPGKNGRLGDFFGDPGNPPEFNPSGSKDGKYELLTSANEVIVEEIKDLMTKSDIKGQHTETLLAGSLAKALCYIHRMNKEVKDNQEMKSRILVIKAAEDSALQYMNFMNVIFAAQKQNILIDACVLDSDSGLLQQACDITGGLYLKVPQMPSLLQYLLWVFLPDQDQRSQLILPPPVHVDYRAACFCHRNLIEIGYVCSVCLSIFCNFSPICTTCETAFKISLPPVLKAKKKKLKVSA”, the “soluble on expression in E. coli” value was “not soluble”. With “MITTFETILDKIKAHQTIIIHRHQNPDPDALGSQAGLKEIIAQNFPDKKVLMTGFDEPSLAWISQMDQVTDKDYKEALVIITDTANRPRIDDERYTLGKCLIKIDHHPNDDVYGDFYYVDTSASSASEIIADFAFSQNLTLSDKAAKLLYTGIVGDTGRFLYASTTSKTLSIASQLRHFEFDFAAISRQMDSFPLKIAKLQSYVFEHLTIDESGAAYVLVSQETLKHFDVTLAESSAIVCAPGKIDNVQAWAIFVELTDGNYRVRMRSKEKIINGIAKRHGGGGHPLASGANSANLEENQAIFRELIAVCQEILEHHHHHH” the “soluble on expression in E. coli” value was “soluble”. With “MQLSRQDEPLYLGLAETLRDELAGYQPGDYLPAEFQLAERFSVNRHTIRRAVDELVREGSVLRRQGKGTQVLERPLIYPMQADSAYSQSLSAQGVGVEAILLLRRECQASHEDALHLGLAEHAPVIELQTLRKLDGQAVSLIFHRYSAVYHELLADYQGGSVRQYLAECGLPLSRAQSLIGARLPSREEAGLLLMPRHMPALTVLTVSCDGAGQPVELSRSVSRSDRFQYQVATAIPTR” the “soluble on expression in E. coli” value was “not soluble”. For “MAHHHHHHMATPKQKETICEAAIVGFSFNKDRTEAVFSPNNHLLYIVSCKDIKDCSTWEIYATLEHHDQSVSATAWHGSTNRILSCSQDRTAFVWQRNAKGKWKPQMVMLDAGVKRGLTSCAWNHSGSKIYVGSAASNIAVGRFDAENEWWICRLLEGHTSTVTALAPHPSDDTLLLSGGTDGRLMLISTFMKKLDGKKSSSFGHVYLEKCFGAWVHAIAWAPSGQRFAVATHDSRVHVFDIPSVDNLSESIDEGLAIYSVSLAILPLKSLAFVLEDHLVGGGFDYFPALFQPSKKGTGWTMSGKWTMTRVKGAKTAQQIAREKFQNEARIGQAELLEEEQTRHKNTINGVLTLIDDGAAFKSAMEGPVFATASLDGRVEVWTIRDMIPII”, the “soluble on expression in E. coli” value was “not soluble”. In the case of “MKQITIASRESKLALWQTNFVKNRIQLELNIPCEISTMKTQGDIILDQPLNKIGGKALFMKELEVAMLSNKADIAVHSLKDVPYQLPQGFCLAGFMPREDPRDAFVSNKYNSIDDLPKGAVVGTSSLRRKAQLLHYRDDLEIRDLRGNIQTRLSKLDNGDYDAIILASAGLIRLELVERITQFIPVEISLPAVGQGIVVIEALERDNDLLEKIQKLNCRESSRVATAERAFNQELKGGCHVAIGAYAELDNNQITLMAMVASSDGKKILKRKMIGDDPTKLGKLLAQEMIALGAYKILES”, the “soluble on expression in E. coli” value is reported as “not soluble”. For “MAESSDKLYRVEYAKSGRASCKKCSESIPKDSLRMAIMVQSPMFDGKVPHWYHFSCFWKVGHSIRHPDVEVDGFSELRWDDQQKVKKTAEAGG”, the “soluble on expression in E. coli” value was “soluble”. With “MSRPLSIALISETYPPEVNGVANTLGRLHAGLQQLGHRVQVVRPRQPGDDGRRSDAELVLTRGWPLPGYPGLQWGMSSLHKLLRCWKRQRPDVLYIATEGPLGFSALRAARRLGIPAVSGFHTNFQQYSEHYGFGPLTRLVTGYLRWFHNRTQMTLVPSGSQRMELQRRGFERLNLLSRGVDSQLFHPSRRDPELRRRWGLGEQDIAVLHVGRLAAEKNLGLLGGTFRALCAAHPQLKLRLVLVGDGPERKHLERDLPEALFCGVQRGETLAAHYASGDLFLFPSLSETFGNVVLEAQAAGLAVVAFDQAAAGQHIRHGHNGVLAAPGDKSGFVEVASWLLDDQERLRRVRLNARQHASRQGWDSIVEHFQNYLEDACASPLVQPARSKPERPPAEDGGALPRSRELEHHHHHH” the “soluble on expression in E. coli” value was “not soluble”. In the case of “MVGGEDMAKKKAPSAKEGEKQQGFKEIIPEVTEKLVEQARKEVARERWVTPHKLAQKMGVKVSIARRVLRILEEEGVLVLFTRNRRSPLYLEHHHHHH”, the “soluble on expression in E. coli” value is reported as “not soluble”. For “SYELTQPPSVSVAPGKTARITCGGNNIGSKSVHWYQQKPGQAPVLVVYDDSDRPSGIPERFSGSNSGNTATLTISRVEAGDEADYYCQVWDSSSDYVFGTGTKVTVLGQPKANPTVTLFPPSSEEFQANKATLVCLISDFYPGAVTVAWKADGSPVKAGVETTKPSKQSNNKYAASSYLSLTPEQWKSHRSYSCQVTHEGSTVEKTVAPTECS”, the “soluble on expression in E. coli” value was “soluble”. For “MGSDKIHHHHHHMHLGKINEDVFNKVIYPHLGERRKEVVVGPQHGVDTGAIDLQDGRVLVVKTDPVFIVPQFGFKKAAWFAVHILASDVMTSGIPPEYAVIDLNLPPRIKDEEFEEMWIGIHEALKEIGVMVVGGHTGVYEGTDYPMVGGFTMFGIGEKERLGMPSKVKVGDSVIMTKGPAIEATGLLTNLYPEYFKQRLSNEIFNEAYNMYWKMSCWKDGLIASRIGIHMMHDATEGGVFGALTEVARASSKGMRIYEERFFINRAVREVTKLVNIDPWISISEGTMIIVTDKGEEVRNTLIREGIEAEIIGEIVDQSGEVTMVKKDGSRVKIEHPLEDPFWRAFFDLASKT”, the “soluble on expression in E. coli” value was “not soluble”. For “VDSVFIVGHRKLDMDALGASVGMQFFASNIVNASYVVYDPNDMNSDIERAIDYLQEDGETRLVSVERAFELITQNSLLVMVDHSKTALTLSKEFFNKFADVIVVDHHRRDEDFPKNAVLSFIESGASSASELVTELIQFQQAKDKLSRSQASILMAGIMLDTRNFASNVTSRTFDVASYLRGLGSNSMAIQKISATDF”, the “soluble on expression in E. coli” value was “not soluble”. In the case of “SNAMEVMLMSKYATLKYADKNIEIELPVYSPSLGNDCIDVSSLVKHGIFTYDPGFMSTAACESKITYIDGGKGVLLHRGYPIEEWTQKSNYRTLCYALIYGELPTDEQVKSFRQEIINKMPVCEHVKAAIAAMPQHTHPMSSLIAGVNVLAAEHIHNGQKESQDEVAKNIVAKIATIAAMAYRHNHGKKFLEPKMEYGYAENFLYMMFADDESYKPDELHIKAMDTIFMLHADHEQNASTSTVRLSGSTGNSPYAAIIAGITALWGPAHGGANEAVLKMLSEIGSTENIDKYIAKAKDKDDPFRLMGFGHRVYKNTDPRATAMKKNCEEILAKLGHSDNPLLTVAKKLEEIALQDEFFIERKLFSNVDFYSGIILKAMGIPEDMFTAIFALARTSGWISQWIEMVNDPAQKIGRPRQLYTGATNRNF”, the “soluble on expression in E. coli” value is reported as “soluble”. In the case of “KVSSQSEDSSIKLIQITDTHLFAAEDGSLLSVNTADSFAAVVAAIGEEQVEFDAILATGDISQDHTPESYQRFVRGIQPLKKACYWLPGNHDYKPSMHSVLPTQQIQAVEHVLLGEHWQVVLLDSQVVGVPHGKLSEQQLQLLDNKLTEYPERHTLVLLHHHPLLVGSAWLDQHTLKESERFWDVVAKHSNVKAILCGHVHQDMDRIHLGARVMATPSTCVQFKPNSQDFALDNCSPGWRELTLHADGQVSTQVKRLKQGRFLPDFNSNGY”, the “soluble on expression in E. coli” value is reported as “soluble”. With “GLECDGKVNICCKKQFFVSFKDIGWNDWIIAPSGYHANYCEGECPSHIAGTSGSSLSFHSTVINHYRMRGHSPFANLKSCCVPTKLRPMSMLYYDDGQNIIKKDIQNMIVEECGCS” the “soluble on expression in E. coli” value was “soluble”.
